Data from US20210380703A1 (RIGEL PHARMACEUTICALS, published 2021).

B1: 370_D04 (antibody, V domains shown)
VH: EVQLLESGGGLVQPGGSLRLSCAASGFTFDSYSMNWVRQAPGKGLEWVANINYNSGYKGYADSVKGRFTISRDNSKNTLYLQMNSLRAEDTAVYYCARSANWHDTALDYWGQGTLVTVSS
VL: DIQMTQSPSSLSASVGDRVTITCRASQSILTYLNWYQQKPGKAPKLVIYAATSRASGVPSRFSGSGSGTDFTLTISSLQPEDFATYYCQQSYDNPLTFGGGTKVEIK
B2: 366_B12 (antibody, V domains shown)
VH: EVQLLESGGGLVQPGGSLRLSCAASGFTFSSYSMNWVRQAPGKGLEWVAGINYNSGYKGYADSVKGRFTISRDNSKNTLYLQMNSLRAEDTAVYYCARSANWHDTALDYWGQGTLVTVSS
VL: DIQMTQSPSSLSASVGDRVTITCRASQSILTYVNWYQQKPGKAPKLLIYAATSRASGVPSRFSGSGSGTDFTLTISSLQPEDFATYYCQQSYDNPLTFGGGTKVEIK
B3: 374_D08 (antibody, V domains shown)
VH: EVQLLESGGGLVQPGGSLRLSCAASGFTFDSYGMNWVRQAPGKGLEWVSGINYNSGYTGYADSVKGRFTISRDNSKNTLYLQMNSLRAEDTAVYYCARSANWHDTHLDYWGQGTLVTVSS
VL: DIQMTQSPSSLSASVGDRVTITCRASQSILTYLNWYQQKPGKAPKLLIYAATSRHSGVPSRFSGSGSGTDFTLTISSLQPEDFATYYCQQSYESPLTFGGGTKVEIK
B4: 369_G01 (antibody, V domains shown)
VH: EVQLLESGGGLVQPGGSLRLSCAASGFTFSSYSMNWVRQAPGKGLEWVSNINYNSGYKSYADSVKGRFTISRDNSKNTLYLQMNSLRAEDTAVYYCARSANWHDTALDYWGQGTLVTVSS
VL: DIQMTQSPSSLSASVGDRVTITCRASQSILSYVNWYQQKPGKAPKLLIYAATSRASGVPSRFSGSGSGTDFTLTISSLQPEDFATYYCQQSYSSPLTFGGGTKVEIK
B5: 365_A12 (antibody, V domains shown)
VH: EVQLLESGGGLVQPGGSLRLSCAASGFTFSSYGMHWVRQAPGKGLEWVAGINYNGGYTSYADSVKGRFTISRDNSKNTLYLQMNSLRAEDTAVYYCAKSANWHDTHLDYWGQGTLVTVSS
VL: DIQMTQSPSSLSASVGDRVTITCRASQSILTYVNWYQQKPGKAPKLLIYAATSRHSGVPSRFSGSGSGTDFTLTISSLQPEDFATYYCQQSYENPLTFGGGTKVEIK
B6: 372_F08 (antibody, V domains shown)
VH: EVQLLESGGGLVQPGGSLRLSCAASGFTFSDYSMNWVRQAPGKGLEWVSNINYNSGYTGYADSVKGRFTISRDNSKNTLYLQMNSLRAEDTAVYYCARSANWHDTALDYWGQGTLVTVSS
VL: DIQMTQSPSSLSASVGDRVTITCRASQSILTYVNWYQQKPGKAPKLVIYAATSRASGVPSRFSGSGSGTDFTLTISSLQPEDFATYYCQQSYDTPLTFGGGTKVEIK
B7: 367_H06 (antibody, V domains shown)
VH: EVQLLESGGGLVQPGGSLRLSCAASGFTFSSYGMNWVRQAPGKGLEWVSNINYNGGYTGYADSVKGRFTISRDNSKNTLYLQMNSLRAEDTAVYYCARSANWHDTHLDYWGQGTLVTVSS
VL: DIQMTQSPSSLSASVGDRVTITCRASQSIITYLNWYQQKPGKAPKLLIYAATSRASGVPSRFSGSGSGTDFTLTISSLQPEDFATYYCQQSYDTPLTFGGGTKVEIK
B8: 373_C02 (antibody, V domains shown)
VH: EVQLLESGGGLVQPGGSLRLSCAASGFTFDDYSMNWVRQAPGKGLEWVSGINYNSGYKGYADSVKGRFTISRDNSKNTLYLQMNSLRAEDTAVYYCARSANWHDTALDYWGQGTLVTVSS
VL: DIQMTQSPSSLSASVGDRVTITCRASQSILSYVNWYQQKPGKAPKLLIYAATSRASGVPSRFSGSGSGTDFTLTISSLQPEDFATYYCQQSYNTPLTFGGGTKVEIK
B9: 373_D04 (antibody, V domains shown)
VH: EVQLLESGGGLVQPGGSLRLSCAASGFTFDSYSMNWVRQAPGKGLEWVSGINYNSGYKGYADSVKGRFTISRDNSKNTLYLQMNSLRAEDTAVYYCARSANWHDTALDYWGQGTLVTVSS
VL: DIQMTQSPSSLSASVGDRVTITCRASQSILSYLNWYQQKPGKAPKLLIYAATSRHSGVPSRFSGSGSGTDFTLTISSLQPEDFATYYCQQSYDSPLTFGGGTKVEIK
B10: 374_G05 (antibody, V domains shown)
VH: EVQLLESGGGLVQPGGSLRLSCAASGFTFSSYSMNWVRQAPGKGLEWVSNINYNSGYKGYADSVKGRFTISRDNSKNTLYLQMNSLRAEDTAVYYCARGATWHDTHLDYWGQGTLVTVSS
VL: DIQMTQSPSSLSASVGDRVTITCRASQSIISYLNWYQQKPGKAPKLLIYAATSRASGVPSRFSGSGSGTDFTLTISSLQPEDFATYYCQQSYDLPLTFGGGTKVEIK
B11: 373_D10 (antibody, V domains shown)
VH: EVQLLESGGGLVQPGGSLRLSCAASGFTFDSYSMNWVRQAPGKGLEWVSNINYNSGYKGYADSVKGRFTISRDNSKNTLYLQMNSLRAEDTAVYYCARSANWHDTALDYWGQGTLVTVSS
VL: DIQMTQSPSSLSASVGDRVTITCRASQSILSYVNWYQQKPGKAPKLLIYAATSRASGVPSRFSGSGSGTDFTLTISSLQPEDFATYYCQQSYDLPLTFGGGTKVEIK
B12: 374_C10 (antibody, V domains shown)
VH: EVQLLESGGGLVQPGGSLRLSCAASGFTFSSYSMNWVRQAPGKGLEWVSSINYNGGYKGYADSVKGRFTISRDNSKNTLYLQMNSLRAEDTAVYYCARGATWHDTHLDYWGQGTLVTVSS
VL: DIQMTQSPSSLSASVGDRVTITCRASQSIVTYLNWYQQKPGKAPKLLIYAATSLASGVPSRFSGSGSGTDFTLTISSLQPEDFATYYCQQSYNTPLTFGGGTKVEIK
B13: 373_A10 (antibody, V domains shown)
VH: EVQLLESGGGLVQPGGSLRLSCAASGFTFSSYGMNWVRQAPGKGLEWVSGINYNSGYTSYADSVKGRFTISRDNSKNTLYLQMNSLRAEDTAVYYCARSANWHDTALDYWGQGTLVTVSS
VL: DIQMTQSPSSLSASVGDRVTITCRASQSILSYLNWYQQKPGKAPKLVIYAATSRASGVPSRFSGSGSGTDFTLTISSLQPEDFATYYCQQSYDLPLTFGGGTKVEIK
B14: 370_C05 (antibody, V domains shown)
VH: EVQLLESGGGLVQPGGSLRLSCAASGFTFSSYSMNWVRQAPGKGLEWVAGINYNSGYTGYADSVKGRFTISRDNSKNTLYLQMNSLRAEDTAVYYCARSANWHDTALDYWGQGTLVTVSS
VL: DIQMTQSPSSLSASVGDRVTITCRASQSILSYVNWYQQKPGKAPKLVIYAATSRASGVPSRFSGSGSGTDFTLTISSLQPEDFATYYCQQSYNSPLTFGGGTKVEIK
B15: 374_C06 (antibody, V domains shown)
VH: EVQLLESGGGLVQPGGSLRLSCAASGFTFDDYSMNWVRQAPGKGLEWVSSINYNSGYKGYADSVKGRFTISRDNSKNTLYLQMNSLRAEDTAVYYCARSANWHDTALDYWGQGTLVTVSS
VL: DIQMTQSPSSLSASVGDRVTITCRASQSILTYVNWYQQKPGKAPKLLIYAATSRASGVPSRFSGSGSGTDFTLTISSLQPEDFATYYCQQSYNSPLTFGGGTKVEIK
B16: 367_H11 (antibody, V domains shown)
VH: EVQLLESGGGLVQPGGSLRLSCAASGFTFSSYGMNWVRQAPGKGLEWVAGINYNGGYKGYADSVKGRFTISRDNSKNTLYLQMNSLRAEDTAVYYCARSANWHDTALDYWGQGTLVTVSS
VL: DIQMTQSPSSLSASVGDRVTITCRASQSIISYVNWYQQKPGKAPKLVIYAATSRASGVPSRFSGSGSGTDFTLTISSLQPEDFATYYCQQSYNSPLTFGGGTKVEIK
B17: 369_H06 (antibody, V domains shown)
VH: EVQLLESGGGLVQPGGSLRLSCAASGFTFSSYGMNWVRQAPGKGLEWVANINYNGGYKSYADSVKGRFTISRDNSKNTLYLQMNSLRAEDTAVYYCARSANWHDTALDYWGQGTLVTVSS
VL: DIQMTQSPSSLSASVGDRVTITCRASQSIVSYVNWYQQKPGKAPKLLIYAATSRASGVPSRFSGSGSGTDFTLTISSLQPEDFATYYCQQSYDTPLTFGGGTKVEIK
B18: 365_E02 (antibody, V domains shown)
VH: EVQLLESGGGLVQPGGSLRLSCAASGFTFSSYSMNWVRQAPGKGLEWVANINYNGGYTSYADSVKGRFTISRDNSKNTLYLQMNSLRAEDTAVYYCAKSATWHDTHLDYWGQGTLVTVSS
VL: DIQMTQSPSSLSASVGDRVTITCRASQSIISYLNWYQQKPGKAPKLLIYAATSRASGVPSRFSGSGSGTDFTLTISSLQPEDFATYYCQQSYENPLTFGGGTKVEIK
B19: 374_B06 (antibody, V domains shown)
VH: EVQLLESGGGLVQPGGSLRLSCAASGFTFDSYSMNWVRQAPGKGLEWVAGINYNSGYKGYADSVKGRFTISRDNSKNTLYLQMNSLRAEDTAVYYCARSANWHDTHLDYWGQGTLVTVSS
VL: DIQMTQSPSSLSASVGDRVTITCRASQSILTYVNWYQQKPGKAPKLLIYAATSRASGVPSRFSGSGSGTDFTLTISSLQPEDFATYYCQQSYDTPLTFGGGTKVEIK
B20: 370_A12 (antibody, V domains shown)
VH: EVQLLESGGGLVQPGGSLRLSCAASGFTFSSYGMNWVRQAPGKGLEWVAGINYNGGYTSYADSVKGRFTISRDNSKNTLYLQMNSLRAEDTAVYYCARSANWHDTALDYWGQGTLVTVSS
VL: DIQMTQSPSSLSASVGDRVTITCRASQSILTYLNWYQQKPGKAPKLLIYAATSLASGVPSRFSGSGSGTDFTLTISSLQPEDFATYYCQQSYDSPLTFGGGTKVEIK
B21: 370_E09 (antibody, V domains shown)
VH: EVQLLESGGGLVQPGGSLRLSCAASGFTFDDSSMHWVRQAPGKGLEWVSNINYNGGYTGYADSVKGRFTISRDNSKNTLYLQMNSLRAEDTAVYYCAKSANWHDTALDYWGQGTLVTVSS
VL: DIQMTQSPSSLSASVGDRVTITCRASQSILSYVNWYQQKPGKAPKLVIYAATSRASGVPSRFSGSGSGTDFTLTISSLQPEDFATYYCQQSYELPLTFGGGTKVEIK

Target: ACVR2A on primary human myotubes (human, UniProt P27037 20-513)
Experiment: cell-based or functional assay

ACVR2A on primary human myotubes, sequence (P27037 20-513): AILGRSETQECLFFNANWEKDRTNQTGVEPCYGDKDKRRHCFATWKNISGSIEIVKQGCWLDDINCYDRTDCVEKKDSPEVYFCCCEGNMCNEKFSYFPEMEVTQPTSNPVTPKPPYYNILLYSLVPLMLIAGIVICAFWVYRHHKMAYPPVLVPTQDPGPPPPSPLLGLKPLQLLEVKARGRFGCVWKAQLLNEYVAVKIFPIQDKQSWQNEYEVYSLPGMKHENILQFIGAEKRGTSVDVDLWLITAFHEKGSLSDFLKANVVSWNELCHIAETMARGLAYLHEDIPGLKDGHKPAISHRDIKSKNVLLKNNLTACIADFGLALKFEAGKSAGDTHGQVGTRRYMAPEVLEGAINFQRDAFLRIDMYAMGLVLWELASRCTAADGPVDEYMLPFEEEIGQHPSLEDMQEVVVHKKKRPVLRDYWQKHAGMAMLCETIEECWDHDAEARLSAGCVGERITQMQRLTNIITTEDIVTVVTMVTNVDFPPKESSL

Row | Binder | Phospho-SMAD3 Human Skeletal Muscle GDF8
1 | B1 | 0.0074
2 | B2 | 0.0392
3 | B3 | 0.23
4 | B4 | 0.0116
5 | B5 | 0.903
6 | B6 | 0.023
7 | B7 | 0.108
8 | B8 | 0.0083
9 | B9 | 0.0078
10 | B10 | 0.0132
11 | B11 | 0.006
12 | B12 | 0.0582
13 | B13 | 0.0111
14 | B14 | 0.0082
15 | B15 | 0.0138
16 | B16 | 0.0703
17 | B17 | 0.0068
18 | B18 | 0.341
19 | B19 | 0.0407
20 | B20 | 0.0632
21 | B21 | 0.0093
